The values that follow come from US20250206795.

This data set concerns T1, Mouse proBDNF-G-CSF-Tr protein.
T1 sequence: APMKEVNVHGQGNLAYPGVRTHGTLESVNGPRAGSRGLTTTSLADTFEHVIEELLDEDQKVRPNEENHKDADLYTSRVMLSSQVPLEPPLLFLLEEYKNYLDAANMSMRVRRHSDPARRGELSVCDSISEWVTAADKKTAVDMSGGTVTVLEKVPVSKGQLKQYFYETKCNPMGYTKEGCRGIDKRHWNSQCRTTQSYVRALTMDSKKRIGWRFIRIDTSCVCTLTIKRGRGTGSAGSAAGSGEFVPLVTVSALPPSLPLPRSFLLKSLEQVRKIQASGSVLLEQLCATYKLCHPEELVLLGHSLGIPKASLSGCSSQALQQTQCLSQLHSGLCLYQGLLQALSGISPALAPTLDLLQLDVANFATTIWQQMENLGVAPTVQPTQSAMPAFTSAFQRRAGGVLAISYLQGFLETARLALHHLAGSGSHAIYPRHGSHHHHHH

furin: the “enzymatic cleavage (SDS PAGE and Western blot with anti-4-His antibodies), 1 Unit furin, 30 C, 4 hours” value is listed as “furin effectively cleaved the proBDNF-G-CSF-Tr molecule to yield BDNF-G-CSF-Tr”.
